B1: Lmod2_(ABS2) (domain or fragment)
chain: NGRNTESPAAIHPCGNPTVIEDALDKIKSNDPDTTEVNLNNIENITTQTLTRFAEALKDNTVVKTFSLANTHADDSAAMAIAEMLKVNEHITNVNVESNFITGKGILAIMRALQHNTVLTELRFHNQRHIMGSQVEMEIVKLLKENTTLLRLGYHFELPGPRMSMTSILTRNMDKQRQKRLQEQKQQE
notes: the limits 180-367 are printed for the construct of the same name made for cell expression; Cloned in vector pTYB1; also called isolated ABS2 of Lmod2
B2: TL1_(ABS2) (domain or fragment)
chain: VIKPTQYKPVPDEEPNSTDVEETLERIKNNDPKLEEVNLNNIRNIPIPTLKAYAEALKENSYVKKFALANTRADDHVAFAIAIMLKANKTITSLNLDSNHITGKGILAIFRALLQNNTLTELRFHNQRHICGGKTEMEIAKLLKENTTLLKLGYHFELAGPRMTVTNLLSRNMDKQRQKRLQEQRQAQ
notes: human tropomodulin 1 residues 164-229; human leiomodin 1 residues 365-486; The junction was made with a silent NruI site; cloned in vector pTYB1; also called Tmod1-Lmod1 ABS2 hybrid construct
B3: TL2_(ABS2) (domain or fragment)
chain: VIKPTQYKPVPDEEPNSTDVEETLERIKNNDPKLEEVNLNNIRNIPIPTLKAYAEALKENSYVKKFSLANTHADDSAAMAIAEMLKVNEHITNVNVESNFITGKGILAIMRALQHNTVLTELRFHNQRHIMGSQVEMEIVKLLKENTTLLRLGYHFELPGPRMSMTSILTRNMDKQRQKRLQEQKQQE
notes: human tropomodulin 1 residues 164-229; The junction was made with a silent NruI site; cloned in vector pTYB1; also called Tmod1-Lmod2 ABS2 hybrid construct

Molecular target: actin (UniProt P68135 1-377)
Test: ITC; Tmod or Lmod construct in the syringe titrated into LatB-actin in the cell (LatB:actin 1.2:1); 20 mM HEPES pH 7.5, 100 mM NaCl, 0.2 mM ATP, 1 mM DTT; temperature and concentrations listed in the figures
Details: both partners purified

Stoichiometry N, 2:
B1, B2, B3
